Results reported in paper PMC7397135.

Molecular target: recombinant heterodimer of human FCGRT/B2M (human neonatal IgG Fc receptor) (human) (UniProt P55899)
Assay: electrochemical receptor sensor (amperometric I-T, time-current method); hFcγRn adsorbed in two layers on a gold nanoparticle-chitosan glassy carbon electrode with thionine and HRP as signal amplification, blocked with BSA; IgG in solution; constant voltage -0.38 V; data collected after 20 s; 8 mmol/L H2O2 in the test substrate; ultrapure water as blank; change rate of response current against IgG concentration, Ka by the double reciprocal (Lineweaver-Burk) method

UniProt P55899, sequence (P55899 24-297, chain 1 of 2): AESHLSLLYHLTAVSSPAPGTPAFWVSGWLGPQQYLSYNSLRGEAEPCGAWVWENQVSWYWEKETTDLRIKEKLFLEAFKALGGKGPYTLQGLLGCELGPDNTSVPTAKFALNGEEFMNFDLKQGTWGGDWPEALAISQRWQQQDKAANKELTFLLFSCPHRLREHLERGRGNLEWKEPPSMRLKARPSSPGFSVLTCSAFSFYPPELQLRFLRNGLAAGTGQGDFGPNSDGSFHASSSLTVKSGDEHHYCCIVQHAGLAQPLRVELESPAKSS
UniProt P55899, sequence (P61769 21-119, chain 2 of 2, further chain): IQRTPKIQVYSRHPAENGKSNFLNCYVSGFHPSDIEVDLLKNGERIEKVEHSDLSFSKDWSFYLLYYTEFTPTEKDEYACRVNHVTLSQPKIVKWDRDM

Substance: Bovine IgG (antibody)
- Ka (interconnected allosteric constant): 1.59e-22 mol/L

Substance: Donkey IgG (antibody)
- Ka (interconnected allosteric constant): 1.14e-21 mol/L

Substance: Horse IgG (antibody)
- Ka (interconnected allosteric constant): 1.2e-22 mol/L

Substance: Human IgG (antibody)
- Ka (interconnected allosteric constant): 1.02e-23 mol/L

Substance: Quail IgY (antibody)
- Ka (interconnected allosteric constant): 8.61e-20 mol/L

Substance: Rabbit IgG (antibody)
- Ka (interconnected allosteric constant): 2.29e-21 mol/L

Substance: Sheep IgG (antibody)
- Ka (interconnected allosteric constant): 2.17e-21 mol/L
